To fix the notation:
B1: Eukaryotic translation initiation factor 4E type 2 (Homo sapiens), O60573-1 (parent)
chain: MNNKFDALKDDDSGDHDQNEENSTQKDGEKEKTERDKNQSSSKRKAVVPGPAEHPLQYNYTFWYSRRTPGRPTSSQSYEQNIKQIGTFASVEQFWRFYSHMVRPGDLTGHSDFHLFKEGIKPMWEDDANKNGGKWIIRLRKGLASRCWENLILAMLGEQFMVGEEICGAVVSVRFQEDIISIWNKTASDQATTARIRDTLRRVLNLPPNTIMEYKTHTDSIKMPGRLGPQRLLFQNLWKPRLNVP
B2: Eukaryotic translation initiation factor 4E type 2 (Homo sapiens), O60573-1 (parent)
chain: B1 chain
partner: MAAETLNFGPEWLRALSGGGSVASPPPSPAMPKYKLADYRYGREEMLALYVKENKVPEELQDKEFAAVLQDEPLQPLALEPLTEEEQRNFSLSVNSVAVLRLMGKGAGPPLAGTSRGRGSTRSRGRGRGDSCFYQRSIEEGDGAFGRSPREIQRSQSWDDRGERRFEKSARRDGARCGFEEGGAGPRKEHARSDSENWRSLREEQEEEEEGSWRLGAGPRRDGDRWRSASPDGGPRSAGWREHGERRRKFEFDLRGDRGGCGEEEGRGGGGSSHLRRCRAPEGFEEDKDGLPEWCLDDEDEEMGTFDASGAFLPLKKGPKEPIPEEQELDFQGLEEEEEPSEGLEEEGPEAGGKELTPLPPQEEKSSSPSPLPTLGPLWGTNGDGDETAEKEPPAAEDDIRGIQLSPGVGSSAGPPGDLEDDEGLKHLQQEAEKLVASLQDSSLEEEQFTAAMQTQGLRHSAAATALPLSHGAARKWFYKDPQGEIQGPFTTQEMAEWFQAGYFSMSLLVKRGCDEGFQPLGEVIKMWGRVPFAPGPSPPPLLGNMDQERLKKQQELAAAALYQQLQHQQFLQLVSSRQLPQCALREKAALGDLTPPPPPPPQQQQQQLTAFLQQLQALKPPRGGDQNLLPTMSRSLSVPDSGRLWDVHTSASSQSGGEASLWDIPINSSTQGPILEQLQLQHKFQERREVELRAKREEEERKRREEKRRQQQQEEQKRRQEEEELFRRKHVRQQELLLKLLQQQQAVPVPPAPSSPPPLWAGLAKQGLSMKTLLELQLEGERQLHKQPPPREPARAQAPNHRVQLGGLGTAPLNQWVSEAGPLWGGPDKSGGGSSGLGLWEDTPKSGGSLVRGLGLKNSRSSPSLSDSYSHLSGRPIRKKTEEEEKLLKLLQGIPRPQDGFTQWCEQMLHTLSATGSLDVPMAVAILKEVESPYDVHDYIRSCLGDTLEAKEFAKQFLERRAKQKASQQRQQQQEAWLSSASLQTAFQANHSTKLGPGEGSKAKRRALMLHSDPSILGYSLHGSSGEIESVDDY
B3: GRB10-interacting GYF protein 1 (Homo sapiens), O75420 (parent)
chain: B2 partner

Here are results for 11 variants from IntAct's records for PubMed 28698298.

The variants in the first assay derive from B1. The note with it: with 4ebp1_human EIF4EBP1, Q13541.
4ebp1_human EIF4EBP1, Q13541, sequence (Q13541 whole entry): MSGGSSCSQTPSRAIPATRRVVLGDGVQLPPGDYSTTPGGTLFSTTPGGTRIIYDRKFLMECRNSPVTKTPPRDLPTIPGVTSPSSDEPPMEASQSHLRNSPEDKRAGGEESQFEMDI
As for MNNKFDALKDDDSGDHDQNEENSTQKDGEKEKTERDKNQSSSKRKAVVPGPAEHPLQYNYTFWYSRRTPGRPTSSQSYEQNIKQAGTFASVEQFWRFYSHAVRPGDLTGHSDFHLFKEGIKPMWEDDANKNGGKWIIRLRKGLASRCWENLILAMLGEQFMVGEEICGAVVSVRFQEDIISIWNKTASDQATTARIRDTLRRVLNLPPNTIMEYKTHTDSIKMPGRLGPQRLLFQNLWKPRLNVP [I85A;M101A], the “effect of a mutation on the interaction” value is listed as “disrupting interaction strength”.

Consider MNNKFDALKDDDSGDHDQNEENSTQKDGEKEKTERDKNQSSSKRKAVVPGPAEHPLQYNYTFWYSRRTPGRPTSSQSYEQNIKQIGTFASVEQFARFYSHMVRPGDLTGHSDFHLFKEGIKPMWEDDANKNGGKWIIRLRKGLASRCWENLILAMLGEQFMVGEEICGAVVSVRFQEDIISIWNKTASDQATTARIRDTLRRVLNLPPNTIMEYKTHTDSIKMPGRLGPQRLLFQNLWKPRLNVP [W95A], for which the “effect of a mutation on the interaction” value is given as “disrupting interaction strength”.

The next assay covers variants of B1. The note with it: with 4ebp1_human EIF4EBP1, Q13541. This is another data set of the same source.
With MNNKFDALKDDDSGDHDQNEENSTQKDGEKEKTERDKNQSSSKRKAVVPGPAEHPLQYNYTFWYSRRTPGRPTSSQSYEQNIKQIGTFASVEQFWRFYNHMVRPGDLTGHSDFHLFKEGIKPMWEDDANKNGGKWIIRLRKGLASRCWENLILAMLGEQFMVGEEICGAVVSVRFQEDIISIWNKTASDQATTARIRDTLRRVLNLPPNTIMEYKTHTDSIKMPGRLGPQRLLFQNLWKPRLNVP [S99N], the “effect of a mutation on the interaction” value is on record as “increasing interaction strength”.

The variants in a further assay derive from B2. The note with it: with ggyf1_human GIGYF1, O75420.
On to MNNKFDALKDDDSGDHDQNEENSTQKDGEKEKTERDKNQSSSKRKAVVPGPAEHPLQYNYTFWYSRRTPGRPTSSQSYEQNIKQIGTFASVEQFARFYSHMVRPGDLTGHSDFHLFKEGIKPMWEDDANKNGGKWIIRLRKGLASRCWENLILAMLGEQFMVGEEICGAVVSVRFQEDIISIWNKTASDQATTARIRDTLRRVLNLPPNTIMEYKTHTDSIKMPGRLGPQRLLFQNLWKPRLNVP [W95A], for which the “effect of a mutation on the interaction” value is on record as “disrupting interaction strength”.

Regarding MNNKFDALKDDDSGDHDQNEENSTQKDGEKEKTERDKNQSSSKRKAVVPGPAEHPLQYNYTFWYSRRTPGRPTSSQSYEQNIKQAGTFASVEQFARFYSHAVRPGDLTGHSDFHLFKEGIKPMWEDDANKNGGKWIIRLRKGLASRCWENLILAMLGEQFMVGEEICGAVVSVRFQEDIISIWNKTASDQATTARIRDTLRRVLNLPPNTIMEYKTHTDSIKMPGRLGPQRLLFQNLWKPRLNVP [I85A;W95A;M101A], the “effect of a mutation on the interaction” value is given as “disrupting interaction strength”.

For MNNKFDALKDDDSGDHDQNEENSTQKDGEKEKTERDKNQSSSKRKAVVPGPAEHPLQYNYTFWYSRRTPGRPTSSQSYEQNIKQAGTFASVEQFWRFYSHAVRPGDLTGHSDFHLFKEGIKPMWEDDANKNGGKWIIRLRKGLASRCWENLILAMLGEQFMVGEEICGAVVSVRFQEDIISIWNKTASDQATTARIRDTLRRVLNLPPNTIMEYKTHTDSIKMPGRLGPQRLLFQNLWKPRLNVP [I85A;M101A], the “effect of a mutation on the interaction” value was “decreasing interaction strength”.

Variants of B2 are the subject of another assay. The note with it: with ggyf1_human GIGYF1, O75420. This is another data set of the same source.
In the case of MNNKFDALKDDDSGDHDQNEENSTQKDGEKEKTERDKNQSSSKRKAVVPGPAEHPLQYNYTFWYSRRTPGRPTSSQSYEQNIKQIGTFASVEQFARFYSHMVRPGDLTGHSDFHLFKEGIKPMWEDDANKNGGKWIIRLRKGLASRCWENLILAMLGEQFMVGEEICGAVVSVRFQEDIISIWNKTASDQATTARIRDTLRRVLNLPPNTIMEYKTHTDSIKMPGRLGPQRLLFQNLWKPRLNVP [W95A], the “effect of a mutation on the interaction” value was “with no effect”.

As to MNNKFDALKDDDSGDHDQNEENSTQKDGEKEKTERDKNQSSSKRKAVVPGPAEHPLQYNYTFWYSRRTPGRPTSSQSYEQNIKQAGTFASVEQFWRFYSHAVRPGDLTGHSDFHLFKEGIKPMWEDDANKNGGKWIIRLRKGLASRCWENLILAMLGEQFMVGEEICGAVVSVRFQEDIISIWNKTASDQATTARIRDTLRRVLNLPPNTIMEYKTHTDSIKMPGRLGPQRLLFQNLWKPRLNVP [I85A;M101A], the “effect of a mutation on the interaction” value is recorded as “with no effect”.

Another assay covers variants of B2. The note with it: with ggyf1_human GIGYF1, O75420. The source holds these as a separate data set.
As to MNNKFDALKDDDSGDHDQNEENSTQKDGEKEKTERDKNQSSSKRKAVVPGPAEHPLQYNYTFWYSRRTPGRPTSSQSYEQNIKQIGTFASVEQFWRFYSHMVRPGDLTGHSDFHLFKEGIKPMWEDDANKNGGKWIIRLRKGLASRCWENLILAMLGESFDVGEEICGAVVSVRFQEDIISIWNKTASDQATTARIRDTLREVLNLPPNTIMEYKTHTDSIKMPGRLGPQRLLFQNLWKPRLNVP [Q159S;M161D;R202E], the “effect of a mutation on the interaction” value was “with no effect”.

In another assay the parent is B3. The note with it: with EIF4E2, O60573-1.
On to L60D;F65D;V68D;E86A;N95F, for which the “effect of a mutation on the interaction” value is given as “disrupting interaction strength”.

Turning to L60D;F65A;V68D, the “effect of a mutation on the interaction” value is given as “with no effect”.

In the next assay the parent is B3. The note with it: with EIF4E2, O60573-1. The source holds these as a separate data set.
Turning to Y39A;Y41A;M46A;L47A, the “effect of a mutation on the interaction” value is recorded as “disrupting interaction strength”.

Variants of B3 are the subject of another assay. The note with it: with EIF4E2, O60573-1. This is another data set of the same source.
Take E44A;E45F;Q87A: the “effect of a mutation on the interaction” value is “with no effect”.
